The nature of the data set: yeast display, Sf9 membrane polyspecificity reagent, FACS + sequencing; frameworks hold sequencing errors. The method in brief:
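Polyreactivity labels are assigned by the sorting gate from which each nanobody was recovered. The gates were low and high (top ~1%), set on anti-HA fluorescence for expression and streptavidin fluorescence for reagent binding. Before sorting, galactose-induced (36–48 hours) yeast display cells were stained for 1 hour at 4 °C with 10% biotinylated, detergent-solubilized Sf9 membrane reagent.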
For “QVQLVESGGGLVQAGGSLRLSCAASGSTFLKYAMGWYRQAPGKERELVAAISRSGTSTYYADSVKGRFTISRDNAKNTVYLQMNSLKPEDTAVYYCAARWIRSNTQYDYWGQGTQVTVSS”, the “polyreactivity (PSR sort gate)” value is on record as “high polyreactivity”.

For the sequence “QVQLVESGGGLVQAGGSLRLSCAASGSTFLNYAMGWYRQAPGKERELVAAISGRGGRTYYADSVKGRFTISRDNAKNTVYLQMNSLKPEDTAFYYCAARIWVSYTSYDYWGQGTQVTVSS”, the “polyreactivity (PSR sort gate)” value was “high polyreactivity”.

Regarding “QVQLVESGGGLVQAGGSLRLSCAASGSTFLNYAMGWYRQAPGKERELVAAISGRGGRTYYADSVKGRFTISRDNAKNTVYLQMNSLTPEDTAVYYCAARKWVSYTSYDYWGQGTQVTVSS”, the “polyreactivity (PSR sort gate)” value was “high polyreactivity”.

As to “QVQLVESGGGLVQAGGSLRLSCAASGSTFLQNAMGWYRQAPGKEREFVAAISYTGANTYYADSVKGRFTISRDNAKNTVYLQMNSLKPEDTAVYYCAAYARGVRRYRRYDYWGQGTQVTVSS”, the “polyreactivity (PSR sort gate)” value is recorded as “high polyreactivity”.

Consider “QVQLVESGGGLVQAGGSLRLSCAASGSTFLQNAMGWYRQAPGKERELVAAISRSGGSTYYADSVKGRFTISRDNAKNTVYLQMNSLKPEDTAVYYCAAGGRRYDDDYWGQGTQVTVSS”, for which the “polyreactivity (PSR sort gate)” value is recorded as “high polyreactivity”.

Regarding “QVQLVESGGGLVQAGGSLRLSCAASGSTFLRYAMGWYRPAPGKERELVAAISWSGGTTYYADSVKGRFTISRDNAKNTVYLQMNSLKPEDTAVYYCNTASWRAQYYYWGQGTQVTVSS”, the “polyreactivity (PSR sort gate)” value was “high polyreactivity”.

Consider “QVQLVESGGGLVQAGGSLRLSCAASGSTFLRYAMGWYRQAPGKERELVAGIRYSGGTYYADSVKGRFTISRDNAKNTVYLQMNSLKPEDTAVYYCAAYWKLGGFRYGYWGQGTQVTVSS”, for which the “polyreactivity (PSR sort gate)” value is “high polyreactivity”.

Take “QVQLVESGGGLVQAGGSLRLSCAASGSTFLSNAMGWYRQAPGKERELVASIDWSGVSTYYADSVKGRFTISRDNAKNTVYLQMNSLNPEDTAVYYCAAEQVQSWDAYYQVEEYDYWGQGTQVTVSS”: the “polyreactivity (PSR sort gate)” value was “low polyreactivity”.

As for “QVQLVESGGGLVQAGGSLRLSCAASGSTFLSYAMGWYRQAPGKERELVAAITSGGRTYYADSVKGRFTISRDNAKNTVYLQMNSLKPEDTAVYYCAAVTGRFGYWGQGTQVTVSS”, the “polyreactivity (PSR sort gate)” value was “high polyreactivity”.

Consider “QVQLVESGGGLVQAGGSLRLSCAASGSTFLTNAMGWYRQAPGKERELVVAIRTSGGSTYYADSVKGRFTISRDNAKNTVYLQMNSLKPEDTAFYYCAASYRRRRFSEYYYWGQGTQVTVSS”, for which the “polyreactivity (PSR sort gate)” value is given as “high polyreactivity”.

Regarding “QVQLVESGGGLVQAGGSLRLSCAASGSTFLTNVMGWYRPAPGQERELVAAITIGGSTNYADSVKGRFTISRDNAKNTVYLQMNILKPEDTAVYYCATDIRRKPRYVDYEYWGQGTQVTVSS”, the “polyreactivity (PSR sort gate)” value is “low polyreactivity”.

In the case of “QVQLVESGGGLVQAGGSLRLSCAASGSTFLVYAMGWYRQAPGKERELVAAITQIDGSTYYADSVKGRFTISRDNAKNTVYLQMNSLKPEDTAVYYCAARYFWTYEYDYWGQGTQVTVSS”, the “polyreactivity (PSR sort gate)” value is reported as “low polyreactivity”.

On to “QVQLVESGGGLVQAGGSLRLSCAASGSTFLYNAMGWYRQAPGKEREFVAAISGSGGTTYYADSVKGRFTISRDNAKNTVYLQMNSLNPEDTAVYYCAVSQSWYWYYASDYWGQGTQVTVSS”, for which the “polyreactivity (PSR sort gate)” value is given as “low polyreactivity”.

With “QVQLVESGGGLVQAGGSLRLSCAASGSTFLYVMGWYRQAPGKERELVAAISESGGSTYYADSVKGRFTISRDNAKNTLYLQMNSLKPEDTAVYYCAADLPTGLQYRYYRVDYWGQGTQVTVSS”, the “polyreactivity (PSR sort gate)” value is recorded as “low polyreactivity”.

As for “QVQLVESGGGLVQAGGSLRLSCAASGSTFLYYAMGWYRQAPGKERELVAAITSSGGRTYFADSVKGRFTISRDNAQNTVYLQMNSLQPEDTAVYYCARGWPRREQSEYDYWGQGTQVTVSS”, the “polyreactivity (PSR sort gate)” value is listed as “high polyreactivity”.

For “QVQLVESGGGLVQAGGSLRLSCAASGSTFLYYDMGWYRQAPGKERELVATITRGGSTYYADSVKGRFTISRDNAKNTVYLQMNSLKPEDTAVYYCAAYRWGILSAYYYAWYGYWGQGTQVTVSS”, the “polyreactivity (PSR sort gate)” value was “low polyreactivity”.

As for “QVQLVESGGGLVQAGGSLRLSCAASGSTFLYYTMGWYRQAPGKERELVAAITSGGDTNYADSVKGRFTISRDNAKNTVYLQINSLKPEDTAVYYCNAEYTWSGTKIYTYKYDYWGQGTQVTVSS”, the “polyreactivity (PSR sort gate)” value was “low polyreactivity”.

Take “QVQLVESGGGLVQAGGSLRLSCAASGSTFNAYAMGWYRQAPGKERELVAAISSSGGRTHYADSVKGRFTISRDNAKNTVYLQMNSLKPEDTAVFYCNVGKRFVRNDYWGQGTQVTVSS”: the “polyreactivity (PSR sort gate)” value is given as “high polyreactivity”.

With “QVQLVESGGGLVQAGGSLRLSCAASGSTFNDNAMGWYRQAPGKERELVAGISYSGGSTYYADSVKGRFTISRDNAKNTVYLQMNSLKPEDTAVYYCNADVTGLSQFGYWGQGTQVTVSS”, the “polyreactivity (PSR sort gate)” value is given as “low polyreactivity”.

Take “QVQLVESGGGLVQAGGSLRLSCAASGSTFNDYVMGWYRQAPGKERELVAAISRSGGSTYYADSVKGRFTISRDNAKNTVYLQMNSLKPEDTAVYYCAAASPGPWRYDYWGQGTQVTVSS”: the “polyreactivity (PSR sort gate)” value is “high polyreactivity”.

As to “QVQLVESGGGLVQAGGSLRLSCAASGSTFNFNAMGWYRQAPRKERELVAAISSSGGSTYYADSVKGRFTISRDNAKNTVYLQMNSLKPEDTAVYYCATVRRKSPLYYYWGQGTQVTVSS”, the “polyreactivity (PSR sort gate)” value was “high polyreactivity”.

On to “QVQLVESGGGLVQAGGSLRLSCAASGSTFNFYAMGWARQAPGKERELVAAIRQSSGRTYYADSVKGRFTISRDNAKNTVYLQMNSLKPEDTAVYYCNARVPRYNGGSTMEYWGQGTQVTVSS”, for which the “polyreactivity (PSR sort gate)” value is “high polyreactivity”.

For “QVQLVESGGGLVQAGGSLRLSCAASGSTFNGYVMGWYRQAPGKERELVAAISRSGGSTYYADSVKGRFTISRDNAKNNVYLQMYSLKPEDTAVYSCAKGGYQHYWGQGTQVTVSS”, the “polyreactivity (PSR sort gate)” value is reported as “high polyreactivity”.

On to “QVQLVESGGGLVQAGGSLRLSCAASGSTFNGYVMGWYRQAPGKERELVAAISRSGGSTYYADSVKGRFTISRDNAKNTVYLQMYSLKPEDTAVYYCAKGGYQHYWGQGTQVTVSS”, for which the “polyreactivity (PSR sort gate)” value is given as “high polyreactivity”.

Take “QVQLVESGGGLVQAGGSLRLSCAASGSTFNINVMGWYRQAPGKERELVASISTGDITYYADSVKGRFTISRDNAKNTVYLQMNSLKPEDTAVYYCNAEDDLYWWVWYAVGEEYWGQGTQVTVSS”: the “polyreactivity (PSR sort gate)” value is reported as “low polyreactivity”.

Regarding “QVQLVESGGGLVQAGGSLRLSCAASGSTFNIYAMGCYRQSPGKERELVAAIRSGGSTYYADSVKGRFTISRDNAKNTVYLQMNSLKPEDTAVYYCGAAVKRALDYWGQGTQVTVSS”, the “polyreactivity (PSR sort gate)” value is listed as “high polyreactivity”.

Turning to “QVQLVESGGGLVQAGGSLRLSCAASGSTFNIYVMGWYRQAPGKERELVAAITTSGRTYYADSVKGRFTISRDNAKNTVYLQMNSLKPEDTAVYYCAAVPVRYRYSYGYYYWGQGTQVTVSS”, the “polyreactivity (PSR sort gate)” value is “high polyreactivity”.

Consider “QVQLVESGGGLVQAGGSLRLSCAASGSTFNKYAMGWYRQAPGKERELVAAISSSGGSTYYADSVKGRFTISRDNAKNTVYLQMNSLKPEDTAVYYCNARRTYSVPARRYYYWGQGTQVTVSS”, for which the “polyreactivity (PSR sort gate)” value is “high polyreactivity”.

Consider “QVQLVESGGGLVQAGGSLRLSCAASGSTFNLYAMGWYRQAPGKERELVAAISDGDSSTYYADSVKGRFTISRDNAKNTVYLQMNSLKPEDTAVYYCAADFSVYTEEDDSWGQGTQVTVSS”, for which the “polyreactivity (PSR sort gate)” value is “low polyreactivity”.

Consider “QVQLVESGGGLVQAGGSLRLSCAASGSTFNRNAMGWYRQAPGKERELVAAISWRGDSTSYADSVKGRFTISRDNAKNTVYLQMNSLKPEDTAVSYCAADYYYGQGQPDEDNYWGQGTQVTVSS”, for which the “polyreactivity (PSR sort gate)” value is on record as “low polyreactivity”.

For the sequence “QVQLVESGGGLVQAGGSLRLSCAASGSTFNRYAMGWYRPAPGKERELVASISWGGGRTYYADSVKGRFTISRDNAKNTVDFQLNSLKPEDTAVYFCATDRYDRHYEVDYWGQGTQVTVSS”, the “polyreactivity (PSR sort gate)” value was “low polyreactivity”.

Take “QVQLVESGGGLVQAGGSLRLSCAASGSTFNSYTMGWYRKAPGKERELVAAITLSGGRTYYADSVKGRFTISRDNAKNTVYLQMNSLKPEDTAVYYCAAYCRASWERDYWGQGTQVTVTS”: the “polyreactivity (PSR sort gate)” value is listed as “low polyreactivity”.

“QVQLVESGGGLVQAGGSLRLSCAASGSTFNTNAMGWYRQAPGKERELVAAITWRTGSTYYADSVKGRFTISRDNAKNTVYLQMNSLKPEDTAVYYCAADYFWYRSGRYHYWGQVTQVTVSS”: the “polyreactivity (PSR sort gate)” value is listed as “high polyreactivity”.

With “QVQLVESGGGLVQAGGSLRLSCAASGSTFNVNAMGWYSQAPGKERELVATISSGGSTNYADSVKGRFTISRDNAKNTVYLQMNSLKPEDTAVYYCAKEYGSIIPYDYWGQGTQVTVSS”, the “polyreactivity (PSR sort gate)” value is “low polyreactivity”.

Turning to “QVQLVESGGGLVQAGGSLRLSCAASGSTFNVYAMGWYRQAPGKERELVAGIRDSDGSTNYADSVKARFTISRDNAKNTVYLQMNSLKQEDPAVYYCAADLYDINWSVWLDYWGQGTQVTVSS”, the “polyreactivity (PSR sort gate)” value is recorded as “low polyreactivity”.

Take “QVQLVESGGGLVQAGGSLRLSCAASGSTFNVYGMGCYRQAPGKERELVAAINRDGITYADSVKGRFTISRDNAKNTVYLQMNSLKPEDTAVYYCAAGYSPYKGSAGYYWGQGTQVTVSS”: the “polyreactivity (PSR sort gate)” value is reported as “low polyreactivity”.

Regarding “QVQLVESGGGLVQAGGSLRLSCAASGSTFNYNAMGWYRQAPGKERELVAAIRSSDGSTHYADSVKGRFTISRDNAKNTVYLQMNSLKPEDTAVYYCAADYDVWWRDDYWGQGSQVTVSS”, the “polyreactivity (PSR sort gate)” value was “low polyreactivity”.

For “QVQLVESGGGLVQAGGSLRLSCAASGSTFNYNPMGWYRQAPGKERELVAAISSSGGSTYYADSVKGRFTISRDNAKNTVYLQMNSLKPEDTAVYYCATGGSSRVRTEGDYWGQGTQVTVSS”, the “polyreactivity (PSR sort gate)” value is recorded as “low polyreactivity”.

As to “QVQLVESGGGLVQAGGSLRLSCAASGSTFNYYAMGWYRQAHGTERELFAAITYRGGSTYYADSVKGRFTISRDNAKNTVYLHMNLLKPEDTAVYYCNARQVRYMYAQDEGYDYWGLGTQVTVSS”, the “polyreactivity (PSR sort gate)” value is given as “high polyreactivity”.

As for “QVQLVESGGGLVQAGGSLRLSCAASGSTFPANAMGWYRQAPGKERELVATISWSGGRTYYADSVKGRFTISRDNAKNTVYLQMNSLKPEDTAVYYCAANGHGRVYFGGGNWGQGTQVTVSS”, the “polyreactivity (PSR sort gate)” value was “high polyreactivity”.

For “QVQLVESGGGLVQAGGSLRLSCAASGSTFPAYAMGWYRQAPGKERELVAAINTSGGNTYYADSVKGRFTISRDNAKNTVYLQMNSLKPEDTAVYYCAADYKARYSEKFDYWGQGTQVTVSS”, the “polyreactivity (PSR sort gate)” value was “low polyreactivity”.

These data come from the nanobody polyreactivity screen of Harvey et al. (2022).
